This is an account of results in US20030135880A1, “Compositions and methods for halogenation reactions” (priority 2002, published 2003).

The target of series [1] is T1, PrnA (Pseudomonas fluorescens, UniProt P95480).
T1 construct: made in house; host or cells: Pseudomonas fluorescens BL915deltaORF1-4 with plasmid pPEH14 (prnA)
The experiment in a line: Activation of PrnA by electron transferases, 2 h assay (Example 2). The settings on record: 20 microliter PrnA, 50 microliter NADH, 50 microliter electron transferase, room temperature. The format is biochemical. The method, then: The following components are used in examples 1-4 below: PrnA (described for Example 1 above) at 0.36 mg/ml, Assay Mixture containing HEPES (100 mM), glucose-6-phosphate, disodium salt (50 mM), D-Trp (5 mM), NaCl (5 mM). Aspergillus niger catalase (39 U/ml), bovine erythrocyte superoxide dismutase (15 U/ml), Leuconostoc mesenteroides glucose-6-phosphate dehydrogenase (10 U/ml). NADH-(3 mg/ml) NADPH (3 mg/ml).
Each assay contains the assay mixture, either NADH (for samples containing Fre and the NAD(P)H:FMN reductase) or NADPH (for samples containing FNR or FNR and Fd), PrnA and the indicated electron transferase. Negative control samples are incubated in parallel; these substituted buffer for PrnA. Quantification standards are prepared by diluting 0,1, 2 or 5 microliter of 7-Cl-Trp standard (1 mM) in 100 microliter Assay Mixture, 50 microliter NADH, 20 microliter PrnA and 50 microliter buffer; the tubes were heated to 100 C. prior to addition of PrnA, then heated an additional 2 min. Further processing is in parallel with the enzymatic reactions. All samples are mixed for 2 h at room temperature. Reactions are stopped and samples processed as described above in Example 1, including using the HPLC Analytical method PrnA1 as described in Example 1.

Series [2] addresses T2, PrnC (Pseudomonas fluorescens, UniProt P95482).
T2 construct: made in house; host or cells: P. fluorescens (pPEH/prnC/134Δprn), plasmid pPEH-PrnC with tac promoter
T2 sequence (P95482 whole entry, looked up): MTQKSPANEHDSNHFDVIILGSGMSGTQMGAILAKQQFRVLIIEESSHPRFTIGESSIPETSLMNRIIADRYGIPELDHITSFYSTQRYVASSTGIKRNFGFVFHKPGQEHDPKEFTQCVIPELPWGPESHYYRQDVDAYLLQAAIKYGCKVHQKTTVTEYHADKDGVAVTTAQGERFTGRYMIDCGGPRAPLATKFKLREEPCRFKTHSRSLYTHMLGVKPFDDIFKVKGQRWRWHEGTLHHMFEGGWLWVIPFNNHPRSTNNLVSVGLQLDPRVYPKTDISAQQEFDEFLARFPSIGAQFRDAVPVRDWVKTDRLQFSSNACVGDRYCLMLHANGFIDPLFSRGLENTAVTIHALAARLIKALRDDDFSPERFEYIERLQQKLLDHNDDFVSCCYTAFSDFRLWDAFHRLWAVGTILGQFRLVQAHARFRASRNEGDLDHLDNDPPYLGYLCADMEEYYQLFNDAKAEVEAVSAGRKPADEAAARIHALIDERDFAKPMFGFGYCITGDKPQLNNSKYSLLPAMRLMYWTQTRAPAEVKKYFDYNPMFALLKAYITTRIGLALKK
The experiment in a line: In vitro halogenation with PrnC: chlorination of MDA to APRN (Example 3). Format: biochemical, P. fluorescens. As to conditions: Extract #2 (PrnC depleted of P2) plus 20 microliter electron transferase, NADH, overnight. The method, then:
Fre, ferrodoxin NADP reductase, ferrodoxin and NADPH FMN-reductase are tested for the ability to activate P. fluorescens PrnC that was depleted of endogenous electron transferase (P2) as described below. PrnC catalyzes chlorination of monodechloroaminopyrrolnitrin (MDA) to yield aminopyrrolnitrin (APRN).
The following materials are prepared for use in assays described below. Buffer 100 mM Tris/Cl, 1 mM EDTA. pH 7.5. Monodechloroaminopyrrolnitrin (MDA) 74.2 mM is prepared by culture of Pseudomonas fluorescens expressing PrnA and PrnB as described in (Kirner et al,1998) which is herein incorporated by reference in its entirety. The assay mix comprises FAD (5 μM) and MDA (742 μM) in buffer. […]
The assays described below are run as follows; Extract #2 is mixed with the indicated electron transferase, assay mix and either NADH or NADPH as indicated. The native activity of PrnC prior to removal of the P2 activity is determined by a parallel sample in which extract #1 is mixed with assay mix and NADH. […] Samples are analyzed by PrnC_Iso method described below. The 220 nm absorbance chromatogram is analyzed and integrated. PrnC activity is expressed as 100 times the ratio of the APRN peak area to the sum of the peak areas of APRN and MDA. Assuming equal extinction coefficients at 220 nm the calculated ratio is equivalent to the net % conversion of MDA to APRN by halogenation. […]

T1 sequence (P95480 whole entry): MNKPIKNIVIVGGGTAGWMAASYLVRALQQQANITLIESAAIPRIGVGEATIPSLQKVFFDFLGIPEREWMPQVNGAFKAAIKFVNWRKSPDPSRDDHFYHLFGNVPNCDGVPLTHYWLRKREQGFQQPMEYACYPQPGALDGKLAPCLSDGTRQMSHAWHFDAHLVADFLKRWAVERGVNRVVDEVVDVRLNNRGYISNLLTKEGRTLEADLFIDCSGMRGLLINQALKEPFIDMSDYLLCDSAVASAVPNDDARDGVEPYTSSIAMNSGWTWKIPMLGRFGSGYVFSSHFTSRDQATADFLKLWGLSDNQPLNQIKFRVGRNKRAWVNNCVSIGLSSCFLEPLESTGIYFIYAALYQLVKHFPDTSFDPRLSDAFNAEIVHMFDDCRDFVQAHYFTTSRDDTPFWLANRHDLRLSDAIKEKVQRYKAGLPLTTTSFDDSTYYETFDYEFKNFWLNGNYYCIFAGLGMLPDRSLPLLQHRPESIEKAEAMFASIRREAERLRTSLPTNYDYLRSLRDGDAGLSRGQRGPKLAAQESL

“ferrodoxin NADP reductase and ferrodoxin: Spinach ferredoxin NADP reductase used together with spinach ferredoxin (Fd)”: in series [1], the “Net 7-Cl-Trp produced” value is given as 9.15 nmol. Also, the “PrnC activity, conversion of MDA to APRN” value in series [2] stood at 2.5%.
